Reference: US20250197461A1, “Insect-derived short peptide for improving abscisic acid (ABA) content in cruciferous plant” (Gannan Normal University, priority 2023, published 2025)

Experiments:
[1] = target: T1, zeaxanthin epoxidase aba1 (Arabidopsis thaliana, UniProt Q9FGC7); assay: Yeast two-hybrid interaction of GSS1 and its variants with aba1; assay type: binding; details: Y2HGold yeast, TDO/QDO with x-α-gal
T1 construct: expressed in transfected cells; host or cells: Y2HGold yeast (Saccharomyces cerevisiae)
T1 sequence (Q9FGC7 60-667): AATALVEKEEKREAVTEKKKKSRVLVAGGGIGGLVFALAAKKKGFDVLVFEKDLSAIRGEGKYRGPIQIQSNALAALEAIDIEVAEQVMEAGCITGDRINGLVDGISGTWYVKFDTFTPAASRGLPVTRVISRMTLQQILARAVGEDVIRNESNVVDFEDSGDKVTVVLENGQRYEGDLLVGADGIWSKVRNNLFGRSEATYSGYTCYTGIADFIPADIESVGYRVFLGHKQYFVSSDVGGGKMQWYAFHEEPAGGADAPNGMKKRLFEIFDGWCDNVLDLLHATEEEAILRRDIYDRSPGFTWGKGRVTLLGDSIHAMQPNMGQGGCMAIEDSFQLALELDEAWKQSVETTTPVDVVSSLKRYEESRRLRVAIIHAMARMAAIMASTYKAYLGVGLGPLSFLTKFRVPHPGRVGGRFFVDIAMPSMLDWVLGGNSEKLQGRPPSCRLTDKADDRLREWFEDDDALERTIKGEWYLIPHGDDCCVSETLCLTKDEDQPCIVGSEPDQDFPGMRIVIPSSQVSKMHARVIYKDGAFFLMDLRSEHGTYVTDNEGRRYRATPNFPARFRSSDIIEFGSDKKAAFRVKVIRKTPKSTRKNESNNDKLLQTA
Text: A Y2HGold yeast transformant containing the correct pGBKT7-GSS1 bait plasmid was used as a recipient strain to prepare competent cells, and a library plasmid extracted from the yeast library was transferred into the competent cells, and coated on the SD-Trp-Leu-His+5 mM3AT plate. […]

[2] = tested on: Plutella xylostella larvae; assay: Plutella xylostella larvae fed on Arabidopsis thaliana treated with short peptide; assay type: in vivo; details: third-instar larvae fed on treated Arabidopsis thaliana for 3 days
Text: (5) Biological Experimental Observation after GSS-PI Short Peptide Treatment with Arabidopsis thaliana. • 1) 60 newly molted third-instar larvae fed on artificial feed were divided into 3 groups, and 20 larvae in each group were fed on Arabidopsis thaliana plants treated with GSS-P1 short peptide or GFP control short peptide; • 2) In order to prevent plants from being damaged mechanically or influenced by external factors, a simple interactive biological observation device for insect-plant interaction was used to eliminate potential interference factors; • 3) After 3 days, the simple interactive biological observation device was opened, and the number of larvae (4th instar larvae) was observed and counted, the number of larvae surviving was recorded, and divided by the initial number of 20 larvae to obtain the daily survival rate of larvae.

Sequence: PDYKQKLRDSKAWESLETIGIPLDADVM (insect-derived short peptide) [GSS1-PI]
- interaction with aba1 (yeast two-hybrid) [1]: interacted with aba1
- mortality rate of larvae [2]: about 70%
